For orientation: EC50 means the concentration that produces a half-maximal response. A low value points to a more potent agent. The term Kd denotes a measure of binding affinity in units of concentration. Higher therefore signals lower affinity. As a reminder, the koff is the rate constant with which the complex falls apart. Low values mean slow dissociation, high ones fast dissociation. In general, kon refers to the second-order rate constant of association. Low readings indicate slower complex formation, high ones faster complex formation.

The results in this text go back to patent publication US20240002504A1 (AKESO BIOPHARMA, published 2024).

The target of experiment [1] is T1, 293T-TIGIT cell membrane surface antigen TIGIT (human, UniProt Q495A1 22-244).
T1 construct: whole, on cells; also called cell membrane surface TIGIT
T1 sequence (looked up): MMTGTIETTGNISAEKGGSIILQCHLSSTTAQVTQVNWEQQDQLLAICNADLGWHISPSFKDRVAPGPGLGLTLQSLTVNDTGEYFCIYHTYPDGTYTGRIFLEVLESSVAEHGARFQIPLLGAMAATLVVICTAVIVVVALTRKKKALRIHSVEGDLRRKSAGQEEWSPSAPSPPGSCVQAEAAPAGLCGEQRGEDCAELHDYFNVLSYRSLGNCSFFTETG
Put plainly: FACS competition vs CD155 (10 nM) on 293T-TIGIT cells. The method, then: (§1) The cells were diluted, 300 thousand cells were added to each well of a transparent V-bottomed 96-well plate, and 200 μL of 1% PBSA was added to each tube. The mixtures were centrifuged for 5 min, and the supernatants were discarded. […] The plate was incubated on ice for 30 min. […] 200 μL of 1% PBSA was then added to each tube. The mixtures were centrifuged for 5 […], and the supernatants were discarded. The plate was washed twice. APC goat anti-mouse IgG (minimal x-reactivity) antibody (diluted 300-fold with PBSA) was added to each sample, and the mixtures were incubated on ice in the dark for 40 min. 200 μL of PBSA was added to each tube. The mixtures were centrifuged for 5 min, and the supernatants were discarded. The cells were resuspended by adding 200 μL of PBSA, and the suspensions were transferred into flow cytometry tubes to measure the mean fluorescence intensity of the cells at each concentration by a flow cytometer.

For experiment [2], the target named is T2, human TIGIT-mFc (human, UniProt Q495A1 22-141, limits assumed).
T2 construct: the whole entry NP_776160.2 is named; also called antigen TIGIT-mFc; not shown: Fc protein fragment of a mouse IgG (mFc)
T2 sequence (looked up): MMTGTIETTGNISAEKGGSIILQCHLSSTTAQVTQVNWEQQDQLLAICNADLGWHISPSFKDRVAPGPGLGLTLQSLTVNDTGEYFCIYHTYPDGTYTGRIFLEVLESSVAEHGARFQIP
Put plainly: BLI (Fortebio), TIGIT-mFc on AMC sensor, Ab 0.06-5 nM, 37 C, 1:1 fit. The method, then:
The sample dilution buffer was PBS (0.02% Tween-20, 0.1% BSA, pH 7.4). TIGIT-mFc was immobilized on an AMC sensor at a concentration of 3 μg/mL for 50 s, and the sensor was equilibrated in the buffer for 60 s. The TIGIT-mFc immobilized on the sensor was allowed to bind to antibody at concentrations of 0.06-5 nM (three-fold dilutions) for 120 s, and the protein was dissociated in the buffer for 300 s. The sensor was regenerated with 10 mM glycine solution (pH=1.7). The detection temperature was 37° C., the detection frequency was 0.3 Hz, and the sample plate shaking rate was 1000 rpm. The data were analyzed by 1:1 model fitting to obtain affinity constants.
A general note: In BLI a coated tip is dipped into the sample, and binding shifts an interference pattern.

Experiment [3] concerns the target T1, 293T-TIGIT cell membrane surface …. Put plainly: FACS on 293T-TIGIT cells. As for the experimental part:
The cells were diluted, 300 thousand cells were added to each well of a transparent V-bottomed 96-well plate, and 200 μL of 1% PBSA was added to each tube. The mixtures were centrifuged for 5 min, and the supernatants were discarded. […] The mixtures were centrifuged for 5 min, and the supernatants were discarded. The plate was washed twice. […] 200 μL of PBSA was added to each tube. The mixtures were centrifuged for 5 min, and the supernatants were discarded. The cells were resuspended by adding 200 μL of PBSA, and the suspensions were transferred into flow cytometry tubes to measure the mean fluorescence intensity of the cells at each concentration by a flow cytometer.

Experiment [4] has the same target. Put plainly: FACS competition vs CD112 (30 nM) on 293T-TIGIT cells. As for the experimental part: as §1
In experiment [5] the target is T2, human TIGIT-mFc. Briefly: competition ELISA vs CD155-hFc-Biotin (1 ug/mL), coated TIGIT-mFc. The method, then: (§2) Experimental steps: a microplate was coated with TIGIT-mFc at 2 μg/mL, and incubated at 4° C. overnight. After incubation, the antigen-coated microplate was rinsed once with PBST, and then blocked with a PBST solution containing 1% BSA as a microplate blocking solution for 2 h. After blocking, the microplate was washed 3 times with PBST. The antibodies serially diluted with the PBST solution was added to the microplate. […] The microplate was incubated at 37° C. for 30 min, and then washed 3 times with PBST. After washing, SA-HRP working solution diluted in a ratio of 1:4000 was added, and the microplate was incubated at 37° C. for 30 min. After incubation, the plate was washed 4 times with PBST, TMB (Neogen, 308177) was added for chromogenesis in the dark for 5 min, and then a stop solution was added to terminate the chromogenic reaction. The microplate was put into a microplate reader immediately, and the OD value of each well in the microplate was read at 450 nm. The data were analyzed and processed by SoftMax Pro 6.2.1.
For orientation: ELISA stands for enzyme-linked immunosorbent assay.

For experiment [6], the target named is T2, human TIGIT-mFc. Put plainly: ELISA, TIGIT-mFc captured on goat anti-mouse IgG Fc. As for the experimental part:
(§3) Experimental steps: a microplate was coated with goat anti-mouse IgG Fc at 2 μg/mL, and incubated at 4° C. for 16 h. After incubation, the microplate coated with goat anti-mouse IgG Fc was washed once with PBST, and then blocked with a PBST solution containing 1% BSA as a microplate blocking solution for 2 h. After blocking, the microplate was washed 3 times with PBST. Then, 1 μg/mL antigen human TIGIT-mFc was added, and the plate was incubated at 37° C. for 30 min and then washed 3 times with PBST. The antibodies serially diluted with the PBST solution were added to the wells of the microplate. The microplate containing the test antibodies was incubated at 37° C. for 30 min, and then washed 3 times with PBST. After washing, HRP-labeled goat anti-human IgG Fc secondary antibody working solution diluted in a ratio of 1:5000 was added, and the microplate was incubated at 37° C. for 30 min. After incubation, the plate was washed 4 times with PBST, TMB (Neogen, 308177) was added for chromogenesis in the dark for 4 min, and then a stop solution was added to terminate the chromogenic reaction. The microplate was put into a microplate reader immediately, and the OD value of each well in the microplate was read at 450 nm. The data were analyzed and processed by SoftMax Pro 6.2.1.

Experiment [7] concerns the target T2, human TIGIT-mFc. Put plainly: competition ELISA vs CD155-hFc-Biotin (1 ug/mL), coated TIGIT-mFc. The method, then: as §2
This is another data set of the same source.

In experiment [8] the target is T2, human TIGIT-mFc. Briefly: ELISA, TIGIT-mFc captured on goat anti-mouse IgG Fc. As for the experimental part: as §3
The source holds these as a separate data set.

In experiment [9] the target is T2, human TIGIT-mFc. Briefly: indirect ELISA screening with human TIGIT-mFc as antigen.

B1: RG6058 (antibody, V domains shown)
VH: EVQLQQSGPGLVKPSQTLSLTCAISGDSVSSNSAAWNWIRQSPSRGLEWLGKTYYRFKWYSDYAVSVKGRITINPDTSKNQFSLQLNSVTPEDTAVFYCTRESTTYDLLAGPFDYWGQGTLVTVSS
VL: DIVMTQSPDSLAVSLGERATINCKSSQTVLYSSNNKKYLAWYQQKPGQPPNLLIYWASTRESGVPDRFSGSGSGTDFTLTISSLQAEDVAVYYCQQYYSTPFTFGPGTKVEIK
As to B1, the EC50 in experiment [1] was 1.21 nM; in experiment [3] it was 1.26 nM; in experiment [4], 1.22 nM; in [5], 0.254 nM; in experiment [6], 0.036 nM; in experiment [7], 0.236 nM. Moreover, in [8], the half-maximal effective concentration (EC50) came out at 0.039 nM. In experiment [2], this molecule returned a Kd of 0.0316 nM. Moreover, the “Maximum signal height of analyte” value in experiment [2] came out at 0.16 nm. For the same molecule, the “S E (kdis)” value in [2] was 3.46e-05 s⁻¹. Also, in [2], the “S E (kon)” value was determined as 184000 M⁻¹ s⁻¹. Further, the koff in experiment [2] is 0.000144 s⁻¹. Besides, in experiment [2], the kon stood at 4.56e+06 M⁻¹ s⁻¹.

B2: 26B12 (antibody, V domains shown)
VH: EVQLQESGPGLVKPSQSLSLTCTVTGHSFTSDYAWNWIRQFPGNRLEWMGYISYSDSTNYNPSLKSRISITRDTSKNQFFLQMNSVTTEDTATYYCARLDYGNYGGAMDYWGQGTSVTVSS
VL: DIVLTQSHEFMSTSLRDRVSITCKSSQHVSTAVAWYQQKPGQSPKLLIYSASYRYTGVPDRFTGSGSGTDFTFTISSVKAEDLAVYYCQQHYITPWTFGGGTKLEIK
notes: Murine hybridoma antibody; also called monoclonal antibody secreted by hybridoma cell line LT019
With B2, in experiment [9], the binding result is on record as “binds”.
